Tests used:
[1] = target: the molecule itself; test: SEC; topo VI co-expressed in E. coli and co-purified through His6-Top6B (Ni2+, SP/Q, TEV, Ni2+), then Sephacryl-300 HR gel filtration in 20 mM HEPES-KOH pH 7.5, 300 mM KCl, 10% glycerol; heterotetramer peak
[2] = target: the molecule itself; test: FRET or BRET; bulk FRET between Alexa555 and Alexa647 on Cys180 of the ATP gate; 200 nM topo II, 0 or 100 uM bp supercoiled DNA, 100 mM KCl, 10 mM Tris-HCl pH 7.9, 5 mM MgCl2, 0 or 1 mM AMPPNP

| Protein | binding result [1] | binding result [2] |
| --- | --- | --- |
| Methanosarcina mazei topoisomerase VI subunit A (Top6A) (enzyme, Top6A of Methanosarcina mazei topo VI; the Top6A gene cloned into a polycistronic expression vector (Corbett et al., 2007); Two Top6A and two Top6B form the A2B2 heterotetramer; also called MmTop6A; A subunit of topo VI) MEGEKGSKTRKGDALAREKLLEIAEKIYNQFEEEVVPSVSLPSRTKANLEYSDESDVWVYGDRESERSAKTVKGAFQLLKTTYATDFLINEHLARNRGSTLRELYYISEGWDYAKFKEQGESDRLIEDLEILTSLQREYFHMRPEEDGATMFGPIEITEQTKRGERNIHCQKDVGEGGYQIPFNVENIEFQKHDASMIIAIETGGMYARLMENGFDEAYNAILVHLKGQPARSTRRIIKRMNEELGIPVAVFTDGDPWSYRIYASVAYGAIKSAHLSEFMATPAAKFLGLQPSDIVEYELSTDKLTEQDVSALRSELSDPRFESDYWKEQIQLQLDIGKKAEQQAFAGKGLDFVTEVYLPNRLKEMGMI | binds | – |
| S. cerevisiae topoisomerase II 1-1177 cyslite-180C, Alexa555/Alexa647-labeled (enzyme, Saccharomyces cerevisiae, UniProt P06786 1-1177, looked up, Alexa Fluor 555 C2 maleimide or Alexa Fluor 647 C2 maleimide on the native cysteine 180, Saccharomyces cerevisiae topoisomerase II, C-terminal truncation coding for residues 1-1177 (Schmidt et al., 2012), with four cysteines changed to alanine; also called ScTop2^ΔCTR-cyslite-180C; topo II; not shown: His6, N-terminal, cleaved) MSTEPVSASDKYQKISQLEHILKRPDTYIGSVETQEQLQWIYDEETDAMIEKNVTIVPGLFKIFDEILVNAADNKVRDPSMKRIDVNIHAEEHTIEVKNDGKGIPIEIHNKENIYIPEMIFGHLLTSSNYDDDEKKVTGGRNGYGAKLCNIFSTEFILETADLNVGQKYVQKWENNMSICHPPKITSYKKGPSYTKVTFKPDLTRFGMKELDNDILGVMRRRVYDINGSVRDINVYLNGKSLKIRNFKNYVELYLKSLEKKRQLDNGEDGAAKSDIPTILYERINNRWEVAFAVSDISFQQISFVNSIATTMGGTHVNYITDQIVKKISEILKKKKKKSVKSFQIKNNMFIFINCLIENPAFTSQTKEQLTTRVKDFGSRAEIPLEYINKIMKTDLATRMFEIADANEENALKKSDGTRKSRITNYPKLEDANKAGTKEGYKCTLVLTEGDSALSLAVAGLAVVGRDYYGAYPLRGKMLNVREASADQILKNAEIQAIKKIMGLQHRKKYEDTKSLRYGHLMIMTDQDHDGSHIKGLIINFLESSFPGLLDIQGFLLEFITPIIKVSITKPTKNTIAFYNMPDYEKWREEESHKFTWKQKYYKGLGTSLAQEVREYFSNLDRHLKIFHSLQGNDKDYIDLAFSKKKADDRKEWLRQYEPGTVLDPTLKEIPISDFINKELILFSLADNIRSIPNVLDGFKPGQRKVLYGCFKKNLKSELKVAQLAPYVSEATAYHHGEQSLAQTIIGLAQNFVGSNNIYLLLPNGAFGTRATGGKDAAAARYIYTELNKLTRKIFHPADDPLYKYIQEDEKTVEPEWYLPILPMILVNGAEGIGTGWSTYIPPFNPLEIIKNIRHLMNDEELEQMHPWFRGWTGTIEEIEPLRYRMYGRIEQIGDNVLEITELPARTWTSTIKEYLLLGLSGNDKIKPWIKDMEEQHDDNIKFIITLSPEEMAKTRKIGFYERFKLISPISLMNMVAFDPHGKIKKYNSVNEILSEFYYVRLEYYQKRKDHMSERLQWEVEKYSFQVKFIKMIIEKELTVTNKPRNAIIQELENLGFPRFNKEGKPYYGSPNDEIAEQINDVKGATSDEEDEESSHEDTENVINGPEELYGTYEYLLGMRIWSLTKERYQKLLKQKQEKETELENLLKLSAKDIWNTDLKAFEVGYQEFLQRDAEAR | – | binds |

— PMC5922973, “Topoisomerase VI senses and exploits both DNA crossings and bends to facilitate strand passage” (eLife, 2018)
